Ten molecules from patent US20220175921A1 (Bristol-Myers Squibb, published 2022) can be followed below.

By EC50 is commonly meant the concentration needed to bring the measured effect to its halfway point. High values mean a need for much substance, low ones an effect from little substance. Usually IC50 stands for the midpoint of a concentration-inhibition curve. A lower IC50 goes with higher potency. In general, Kd refers to the free concentration of one partner at which half of the binding sites on the other are occupied at equilibrium, for simple one-to-one binding. By koff is commonly meant the first-order rate constant of dissociation. One may read the kon as a measure of how fast the partners come together.

Assay [1] has as its target T1, human GITR, membrane bound (on activated human T cells or on 3A9-hGITR cells) (human, UniProt Q9Y5U5 26-241).
T1 construct: also called huGITR; TNFRSF18
T1 sequence: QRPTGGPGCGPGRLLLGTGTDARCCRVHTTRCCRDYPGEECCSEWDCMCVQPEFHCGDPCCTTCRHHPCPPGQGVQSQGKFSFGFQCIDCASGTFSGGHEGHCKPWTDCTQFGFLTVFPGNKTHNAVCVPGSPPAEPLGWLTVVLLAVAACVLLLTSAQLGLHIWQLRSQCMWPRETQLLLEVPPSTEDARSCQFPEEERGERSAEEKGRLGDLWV
As to the kind of experiment: FACS on PHA-activated human CD4+ and CD8+ T cells, anti-HA detection. From the text:
(§1) The samples were acquired on a FACS Canto Flow Cytometer (BD, San Jose) and analyzed with FlowJo software (Tree Star, Inc, Ashland, Oreg.).

The target of assay [2] is T1, human GITR, membrane bound (on …). As to the kind of experiment: FACS; pre-bound GITR-L against 0.5 ug/mL 28F3-hIgG1 (competitor) on activated T cells; partial inhibition.
Excerpt: as §1
(A flow cytometer gives signals particle by particle.)

The target in assay [3] is T2, cynomolgus GITR, membrane bound (on activated cynomolgus T cells) (cynomolgus monkey, UniProt Q9Y5U5 26-241 (human entry)).
T2 construct: also called cyno GITR
T2 chain: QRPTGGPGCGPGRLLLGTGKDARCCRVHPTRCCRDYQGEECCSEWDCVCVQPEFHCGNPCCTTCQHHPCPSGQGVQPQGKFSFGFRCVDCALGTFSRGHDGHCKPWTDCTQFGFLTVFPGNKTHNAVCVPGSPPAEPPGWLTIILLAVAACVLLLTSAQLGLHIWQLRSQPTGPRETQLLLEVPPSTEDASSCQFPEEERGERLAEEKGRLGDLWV
As to the kind of experiment: FACS on activated cynomolgus T cells. On the procedure:
(§2) Peripheral Blood Mononuclear Cells (PBMCs) isolated from human or cynomolgus monkey were activated with plate-coated anti-CD3 antibody (Clone: UCHT1 for human T cell activation; Clone: SP34 for cynomolgus T cell activation; both from BD Biosciences) and soluble anti-CD28 antibody (Clone:CD28.2 for both human and cynomolgus monkey, BD Biosciences) for 4 days (human)/or 5 days (cynomolgus monkey). The cells were tested for GITR mAb binding in a fluorescence-activated cell sorting (FACS)-based assay using a phycoerythrin (PE)-conjugated anti-human IgG antibody (Jackson ImmunoResearch). The samples were analyzed on a BD FACS Canto Flow Cytometer.

The target in assay [4] is T3, recombinant human GITR/Fc (rHGITR/Fc, R&D systems CAT #689-GR) (human, UniProt Q9Y5U5 26-161, limits assumed).
T3 construct: Bought; also called soluble GITR
T3 chain: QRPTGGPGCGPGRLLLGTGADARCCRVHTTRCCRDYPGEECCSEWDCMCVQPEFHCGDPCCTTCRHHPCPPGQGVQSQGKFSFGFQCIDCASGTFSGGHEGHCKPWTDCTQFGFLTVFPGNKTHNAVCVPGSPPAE
Put plainly: SPR; mAb captured (anti-kappa), rHGITR/Fc analyte. On the procedure:
Binding of anti-GITR antibodies to soluble GITR was determined by Biacore. […] The capture concentration of the mAb/volume was 2-40 μg/mL (5 μL at 10 μL/min). The antigen association time was 5 minutes at 15 μL/min, the antigen dissociation time was 6 minutes, and regeneration was performed with 50 mM HCl/50 mM NaOH (12 μL each at 100 μL/min).
(In general: In SPR one partner is held on a chip, and binding of the other changes the refractive index at the surface.)

The target in assay [5] is T1, human GITR, membrane bound (on …). Put plainly: cell-based or functional assay.
In another assay the target is T4, mouse GITR (mouse, UniProt O35714 20-228).
T4 construct: whole, on cells; also called muGITR
T4 sequence (looked up): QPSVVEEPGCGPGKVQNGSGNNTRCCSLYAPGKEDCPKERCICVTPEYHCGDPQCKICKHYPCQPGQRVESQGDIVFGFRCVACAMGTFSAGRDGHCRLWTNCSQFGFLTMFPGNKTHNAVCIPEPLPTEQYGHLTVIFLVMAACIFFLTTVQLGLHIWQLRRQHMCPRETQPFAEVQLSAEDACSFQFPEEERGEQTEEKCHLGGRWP
Put plainly: stated in the Treg suppression assay with huGITR KI and wildtype mouse T cells. From the text:
From the previous experiment it was not clear whether the increased Teff proliferation was due to the anti-GITR antibodies acting on Treg and/or Teff cells. To address this question, human GITR “knock-in” (huGITR KI) mice were used. In these mice, the gene encoding mouse GITR, Tnfrsf18, was replaced with the human TNFRSF18 gene, and human GITR is expressed similarly to muGITR in wildtype mice; human GITR is expressed on both Teff and Treg cells with higher levels on the latter.
Treg and Teff cells were sorted based on CD4 and CD25 expression from huGITR KI and WT mice.

The target in assay [6] is T1, human GITR, membrane bound (on …). As to the kind of experiment: FACS on activated human T cells. The procedure:
as §2

Assay [7] concerns the target T3, recombinant human GITR/Fc (rHGITR/Fc, …). As to the kind of experiment: SPR binning with rHGITR/Fc.

B1: recombinant human GITR ligand trimer (R&D Systems 6987-GL) (ligand)
chain: LQLETAKEPCMAKFGPLPSKWQMASSEPPCVNKVSDWKLEILQNGLYLIYGQVAPNANYNDVAPFEVRLYKNKDMIQTLTNKSKIQNVGGTYELHVGDTIDLIFNSEHQVLKNNTYWGIILLANPQFIS
notes: Bought soluble trimer, detected through an HA tag; also called rhGITR-L; hGITR-L trimer
On to B1, for which a half-maximal effect in assay [1] (EC50) was put at 16 ng/mL. In assay [2], this molecule showed an IC50 of 2.4 ng/mL.

B2: 28F3 (antibody, human IgG2, kappa)
heavy: QVQLVESGGGVVQPGRSLRLSCAASGFTFSSYGMHWVRQAPGKGLEWVAVIWYEGSNKYYADSVKGRFTISRDNSKNTLYLQMNSLRAEDTAVYYCARGGSMVRGDYYYGMDVWGQGTTVTVSSASTKGPSVFPLAPCSRSTSESTAALGCLVKDYFPEPVTVSWNSGALTSGVHTFPAVLQSSGLYSLSSVVTVPSSNFGTQTYTCNVDHKPSNTKVDKTVERKCCVECPPCPAPPVAGPSVFLFPPKPKDTLMISRTPEVTCVVVDVSHEDPEVQFNWYVDGVEVHNAKTKPREEQFNSTFRVVSVLTVVHQDWLNGKEYKCKVSNKGLPAPIEKTISKTKGQPREPQVYTLPPSREEMTKNQVSLTCLVKGFYPSDIAVEWESNGQPENNYKTTPPMLDSDGSFFLYSKLTVDKSRWQQGNVFSCSVMHEALHNHYTQKSLSLSPGK
light: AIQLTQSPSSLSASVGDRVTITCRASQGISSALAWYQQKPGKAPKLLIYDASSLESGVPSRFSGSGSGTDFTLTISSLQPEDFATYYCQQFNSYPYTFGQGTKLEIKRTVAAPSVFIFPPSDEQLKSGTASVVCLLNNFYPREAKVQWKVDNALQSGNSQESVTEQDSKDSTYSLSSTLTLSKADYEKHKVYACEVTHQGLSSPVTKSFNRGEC
notes: also called 13H2; 28F3 (IgG2)
In turn, B2 displayed a concentration giving a half-maximal response (EC50) in assay [3] of 1.04 nM. In assay [4], the Kd worked out at 14.8 nM, the koff came to 0.00589 s⁻¹ and the kon came out at 397000 M⁻¹ s⁻¹. Also, in assay [5], the “NFKB signaling (phospho-p65) EC50, CD4+ T cells” value came to 12.8 nM; the “NFKB signaling (phospho-p65) EC50, CD8+ T cells” value is 9 nM; the “NFKB signaling (phospho-p65) Emax, CD4+ T cells” value worked out at 69%; the “NFKB signaling (phospho-p65) Emax, CD8+ T cells” value came to 85%. Moreover, the binding result with mouse GITR is given as “no binding”. This molecule had an EC50 in assay [6] of 0.192 nM.

B3: 8A6 (antibody, human IgG2, kappa, V domains shown)
VH: QVQLVESGGGVVQPGRSLRLSCTASGFTFSSYGMQWVRQAPGKGLEWVAVIWYEGSNKYYADSVKGRFTISRENSKNTLYLQMNSLRAEDTAVYYCARGGLMVRGLFYYGMDVWGQGTTVTVSS
VL: AIQLTQSPSSLSASVGDRVTITCRASQGISSALAWYQQKPGKAPKFLIYDASSLESGVPSRFSGSGSGTDFTLTISSLQPEDFATYYCQQFNSYPYTFGQGTKLEIKR
notes: Hybridoma-derived human antibody
Turning to B3, the binding result in assay [7] was “binds”.

B4: 6G10 (antibody, human IgG2, kappa, V domains shown)
VH: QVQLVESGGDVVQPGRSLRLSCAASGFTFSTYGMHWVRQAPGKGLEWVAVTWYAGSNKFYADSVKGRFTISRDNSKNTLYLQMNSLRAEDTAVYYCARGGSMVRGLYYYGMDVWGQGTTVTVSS
VL: AIQLTQSPSSLSASVGDRVTITCRASQGISSALAWYQQKPGKAPKLLIYDASSLESGVPSRFSGSGSGTDFTLTISSLQPEDFATYYCQQFNSYPYTFGQGTKLEIKR
notes: as for B3
B4: in assay [4], the Kd was determined as 1.87 nM, the koff was determined as 0.000715 s⁻¹ and the kon is 383000 M⁻¹ s⁻¹.

B5: 3C3 (antibody, human IgG1, kappa, V domains shown)
VH: QVQLQQWGAGLLKPSETLSLTCAVYGGSFSGYYWTWIRQPPGKGLEWIGKINHSGNTNYNPSLKSRVTISVDTSKNQFSLKLSSVTAADTAVYYCARLGAFDAFDIWGQGTMVTVSS
VL: DIQMTQSPSSLSASVGDRVTITCRASQGISSWLAWYQQKPEKAPKSLIYAASSLQSGVPSRFSGSGSGTDFTLTISSLQPEDFATYYCQQYNSYPYTFGQGTKLEIKR
notes: Hybridoma-derived; also called GITR.3; 3C3-1
On to B5, for which the binding result in assay [3] is “no binding”. This molecule had an EC50 in assay [6] of 0.0492 nM.

B6: 18E10 (antibody, human IgG2, kappa, V domains shown)
VH: QVQLVESGGGVVQPGRSLRLSCAASGFTFSSYGMHWVRQAPGKGLEWVAVIWYAGSNKYYADSVKGRFTISRDNSKNTLYLQMNSLRAEDTAVYYCARGGRIAVAFYYSMDVWGQGTTVTVSS
VL: DIQMTQSPSSLSASVGDRVTITCRASQGISSWLAWYQQKPEKAPKSLIYAASSLQSGVPSRFSGSGSGTDFTLTISSLQPEDFATYYCQQYNSYPYTFGQGTKLEIKR
notes: as for B3
B6 gave an EC50 in assay [3] of 0.913 nM. In assay [4], the Kd is 13.3 nM, the dissociation rate constant (koff) was determined as 0.00241 s⁻¹ and the on-rate constant (kon) was 182000 M⁻¹ s⁻¹. Besides, the 50% effective concentration (EC50) in assay [6] stood at 0.146 nM.

B7: 2G6 (antibody, human IgG2, kappa, V domains shown)
VH: QVQLVESGGGVVQPGGSLRLSCAASGFILSDYGMHWVRQAPGKGLEWVTVIWYDGSNKFYVDSVKGRFTISRDNSKNTLYLQMNSLRVEDTAVYYCARGGRLATGHFYYVMDVWGQGTTVTVSS
VL: DIQMTQSPSSLSASVGDRVTITCRASQGISSWLAWYQQKPEKAPKSLIYAASSLQSGVPSRFSGSGSGTDFTLTISSLQPEDFATYYCQQYNSYPYTFGQGTKLEIKR
notes: as for B3
As for B7, in assay [4], the Kd is 12 nM, the koff came to 0.00147 s⁻¹ and the association rate constant (kon) stood at 123000 M⁻¹ s⁻¹.

B8: 14E3 (antibody, V domains shown)
VH: QVQLQQWGAGLLKPSETLSLTCAVYGGSFSGYYWSWIRQPPGKGLEWIGEINHSGNTYYNPSLKSRVTISVDTSKNQLSLKLSSVTAADTAVYYCARFGSNDAFDIWGQGTMVTVSS
VL: DIQMTQSPSSLSASVGDRVTITCRASQGISSWLAWYQQKPEKAPKSLIYAASSLQSGVPSRFSGSGSGTDFTLTISSLQPEDFATYYCQQYNSYPPTFGQGTKVEIKR
notes: as for B3
With B8, the binding result in assay [7] was “binds”.

B9: 19D3 (antibody, human IgG2, kappa, V domains shown)
VH: QVQLVESGGGVVQPGRSLRLSCAASGFTFSSYGFHWVRQAPGKGLEWVAVIWYAGSNKFYADSVKGRFTISRDNSKNTLYLQMNSLRAEDTAVYYCARGGQLDYYYYYVMDVWGQGTTVTVSS
VL: DIQMTQSPSSLSASVGDRVTITCRASQGISSWLAWYQQKPEKAPKSLIYAASSLQSGVPSRFSGSGSGTDFTLTISSLQPEDFATYYCQQYNSYPYTFGQGTKLEIKR
notes: as for B3
Turning to B9, in assay [4], the Kd was 16.3 nM, the koff was 0.0045 s⁻¹ and the kon was 276000 M⁻¹ s⁻¹. The same molecule gave an EC50 in assay [6] of 0.363 nM.

B10: GITR.6.G2.G1f (antibody, human IgG2)
heavy: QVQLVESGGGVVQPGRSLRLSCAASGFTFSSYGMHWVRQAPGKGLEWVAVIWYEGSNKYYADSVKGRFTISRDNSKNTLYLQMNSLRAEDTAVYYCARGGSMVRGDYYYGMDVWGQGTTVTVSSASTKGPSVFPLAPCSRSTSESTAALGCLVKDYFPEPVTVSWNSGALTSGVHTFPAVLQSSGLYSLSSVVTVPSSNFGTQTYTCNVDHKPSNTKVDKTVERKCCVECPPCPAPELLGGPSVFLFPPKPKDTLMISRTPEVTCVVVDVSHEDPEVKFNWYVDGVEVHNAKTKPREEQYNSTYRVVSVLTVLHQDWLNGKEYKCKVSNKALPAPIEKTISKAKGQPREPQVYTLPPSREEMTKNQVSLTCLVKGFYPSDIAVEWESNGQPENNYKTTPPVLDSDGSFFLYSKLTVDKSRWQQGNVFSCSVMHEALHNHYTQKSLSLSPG
VL: AIQLTQSPSSLSASVGDRVTITCRASQGISSALAWYQQKPGKAPKLLIYDASSLESGVPSRFSGSGSGTDFTLTISSLQPEDFATYYCQQFNSYPYTFGQGTKLEIK
As to B10, in assay [5], the “NFKB signaling (phospho-p65) EC50, CD4+ T cells” value was 9 nM; the “NFKB signaling (phospho-p65) EC50, CD8+ T cells” value was determined as 3.77 nM; the “NFKB signaling (phospho-p65) Emax, CD4+ T cells” value came to 100%; the “NFKB signaling (phospho-p65) Emax, CD8+ T cells” value is 92%.
